# Measurements reported in patent US20180258140A1, “NEW DODECAPEPTIDES AND MICROCAPSULES FUNCTIONALISED WITH THEM TARGETED TO FIBROBLASTS” (Infinitec Activos, S.L., priority 2015, published 2018).
# *: point of attachment. Palmitoyl = CCCCCCCCCCCCCCCC(=O)*
# Key:
# human keratinocytes = experiment: Cytotoxicity assay (MTT) in keratinocytes; format: cell-based; settings: positive control 0.1% SDS, 48h incubation
# Method: (§1) Human dermal fibroblasts and human keratinocytes were used. The isolated cells were cultured in DMEM culture medium supplemented with 10% FCS and were incubated at 37° C. for maintenance treatment. Untreated cells were used as negative control. The positive control was 0.1% SDS. The microcapsules as obtained in Example 2 were tested in the DMEM culture medium at 0.03%. These weight percentages refer to the weight of the microcapsule in relation to the total weight. Cells were seeded at 20000 cells per well in a 96-well plate. 24 hours after seeding, cells were incubated under the conditions described above. After 48h of incubation at 37° C., the culture medium was removed and the MTT reagent was added. Cells were incubated 2 hours at 37° C. DMSO was then added and the absorbance of the formed formazan salt was measured at A 570 nm. Lower absorbance values correspond to cells with lower metabolic activity, which correlates with an increased damage and, therefore, with an increased cytotoxic effect. Thus, the amount of living cells is proportional to the amount of formazan produced.
# Human dermal fibroblasts = experiment: Cytotoxicity assay (MTT) in fibroblasts; format: cell-based; settings: positive control 0.1% SDS, 48h incubation
# Method: as §1
# FGFR2 Kinase = FGFR2 Kinase (Homo sapiens, UniProt P21802); experiment: FGFR2 kinase inhibition; format: biochemical; settings: percent inhibition of control enzyme activity; test concentration not given
# Sequence of FGFR2 Kinase (P21802 22-821): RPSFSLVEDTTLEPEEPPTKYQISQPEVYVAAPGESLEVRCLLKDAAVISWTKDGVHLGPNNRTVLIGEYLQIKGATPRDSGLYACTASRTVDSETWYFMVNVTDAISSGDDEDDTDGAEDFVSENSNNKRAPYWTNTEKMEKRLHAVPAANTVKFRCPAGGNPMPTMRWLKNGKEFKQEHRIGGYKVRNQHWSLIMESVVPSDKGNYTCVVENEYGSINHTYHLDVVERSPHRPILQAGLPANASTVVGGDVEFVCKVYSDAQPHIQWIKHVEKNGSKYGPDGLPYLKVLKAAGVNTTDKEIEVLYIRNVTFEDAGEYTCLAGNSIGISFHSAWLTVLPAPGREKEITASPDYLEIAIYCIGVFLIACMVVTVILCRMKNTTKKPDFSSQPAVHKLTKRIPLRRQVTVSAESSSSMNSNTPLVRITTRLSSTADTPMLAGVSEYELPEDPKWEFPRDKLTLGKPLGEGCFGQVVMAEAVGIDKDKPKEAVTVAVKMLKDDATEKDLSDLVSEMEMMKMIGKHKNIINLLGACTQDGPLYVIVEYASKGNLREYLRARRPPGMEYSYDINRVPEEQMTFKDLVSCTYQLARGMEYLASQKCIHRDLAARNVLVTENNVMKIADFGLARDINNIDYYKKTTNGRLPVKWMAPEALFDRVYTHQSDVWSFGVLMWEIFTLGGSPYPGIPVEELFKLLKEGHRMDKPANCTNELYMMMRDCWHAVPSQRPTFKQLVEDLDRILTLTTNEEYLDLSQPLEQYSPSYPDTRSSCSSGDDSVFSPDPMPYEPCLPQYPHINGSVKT
# Method: [The source words this procedure for another target and reports this target under the same test.] Evaluation of the effects of the dodecapeptides of the invention on the activity of the human FGFR1 kinase were quantified by measuring the phosphorylation of the substrate Ulight-CAGAGAIETDKEYYTVKD (JAK1) using a human recombinant enzyme expressed in insect cells and the LANCE® detection method using the protocol described below:
# The peptide to be tested, the reference compound or water (control) are mixed with the enzyme (0.252 ng) in a buffer containing 40 mM Hepes/Tris (pH 7.4), 0.8 mM EGTA/Tris, 8 mM MgCl2, 1.6 mM DTT and 0.008% Tween 20 (For control basal measurements, the enzyme is omitted from the reaction mixture). Thereafter, the reaction is initiated by adding 100 nM of the substrate Ulight-CAGAGAIETDKEYYTVKD (SEQ ID NO: 13) (JAK-1 peptide) and 100 μM ATP, and the mixture is incubated for 60 min at room temperature. Following incubation, the reaction is stopped by adding 13 mM EDTA. After 5 min, the anti-phospho-PT66 antibody labeled with europium chelate (EU-W1024-labeled Anti-Phosphotyrosine Antibody PT66, from Perkin Elmer) is added. After 60 more min, the fluorescence transfer is measured at λex=337 nm, λem=620 nm and λem=665 nm using a microplate reader (Envision, Perkin Elmer).
# The enzyme activity is determined by dividing the signal measured at 665 nm by that measured at 620 nm (ratio). The results are expressed as a percent inhibition of the control enzyme activity.
# The standard inhibitory reference compound is staurosporine, which is tested in each experiment at several concentrations to obtain an inhibition curve from which its IC50 value is calculated.
# Results showing an inhibition (or stimulation for assays run in basal conditions) higher than 20% are considered to represent significant effects of the peptides of the invention.
Compound,Keratinocytes % cell viability (human keratinocytes),Fibroblasts % cell viability (Human dermal fibroblasts),FGFR2 Kinase % Inhibition (FGFR2 Kinase)
"CCCCCCCCCCCCOS(=O)(=O)[O-].[Na+] [SDS, Sodium dodecyl sulfate]",12%,25.0%,
Palm-Lys-Phe-Asn-Leu-Pro-Leu-Gly-Ala-Tyr-Lys-Lys-Pro-NH2 (Palmitoyl-KFNLPLGAYKKP-NH2; SMILES CCCCCCCCCCCCCCCC(=O)N[C@@H](CCCCN)C(=O)N[C@@H](Cc1ccccc1)C(=O)N[C@@H](CC(N)=O)C(=O)N[C@@H](CC(C)C)C(=O)N1CCC[C@H]1C(=O)N[C@@H](CC(C)C)C(=O)NCC(=O)N[C@@H](C)C(=O)N[C@@H](Cc1ccc(O)cc1)C(=O)N[C@@H](CCCCN)C(=O)N[C@@H](CCCCN)C(=O)N1CCC[C@H]1C(N)=O) [Peptide 8],,,98.8%
Palm-Lys-Phe-Asn-Leu-Pro-Leu-Gly-Asn-Ala-Lys-Lys-Pro-NH2 (Palmitoyl-KFNLPLGNAKKP-NH2; SMILES CCCCCCCCCCCCCCCC(=O)N[C@@H](CCCCN)C(=O)N[C@@H](Cc1ccccc1)C(=O)N[C@@H](CC(N)=O)C(=O)N[C@@H](CC(C)C)C(=O)N1CCC[C@H]1C(=O)N[C@@H](CC(C)C)C(=O)NCC(=O)N[C@@H](CC(N)=O)C(=O)N[C@@H](C)C(=O)N[C@@H](CCCCN)C(=O)N[C@@H](CCCCN)C(=O)N1CCC[C@H]1C(N)=O) [Peptide 9],,,99.4%
Palm-Lys-Phe-Asn-Leu-Pro-Leu-Gly-Asn-Tyr-Ala-Lys-Pro-NH2 (Palmitoyl-KFNLPLGNYAKP-NH2; SMILES CCCCCCCCCCCCCCCC(=O)N[C@@H](CCCCN)C(=O)N[C@@H](Cc1ccccc1)C(=O)N[C@@H](CC(N)=O)C(=O)N[C@@H](CC(C)C)C(=O)N1CCC[C@H]1C(=O)N[C@@H](CC(C)C)C(=O)NCC(=O)N[C@@H](CC(N)=O)C(=O)N[C@@H](Cc1ccc(O)cc1)C(=O)N[C@@H](C)C(=O)N[C@@H](CCCCN)C(=O)N1CCC[C@H]1C(N)=O) [Peptide 10],,,93.4%
Palm-Lys-Phe-Asn-Leu-Pro-Leu-Gly-Asn-Tyr-Lys-Ala-Pro-NH2 (Palmitoyl-KFNLPLGNYKAP-NH2; SMILES CCCCCCCCCCCCCCCC(=O)N[C@@H](CCCCN)C(=O)N[C@@H](Cc1ccccc1)C(=O)N[C@@H](CC(N)=O)C(=O)N[C@@H](CC(C)C)C(=O)N1CCC[C@H]1C(=O)N[C@@H](CC(C)C)C(=O)NCC(=O)N[C@@H](CC(N)=O)C(=O)N[C@@H](Cc1ccc(O)cc1)C(=O)N[C@@H](CCCCN)C(=O)N[C@@H](C)C(=O)N1CCC[C@H]1C(N)=O) [Peptide 11],,,89.9%
Palm-Lys-Phe-Asn-Leu-Pro-Leu-Gly-Asn-Tyr-Lys-Lys-Ala-NH2 (Palmitoyl-KFNLPLGNYKKA-NH2; SMILES CCCCCCCCCCCCCCCC(=O)N[C@@H](CCCCN)C(=O)N[C@@H](Cc1ccccc1)C(=O)N[C@@H](CC(N)=O)C(=O)N[C@@H](CC(C)C)C(=O)N1CCC[C@H]1C(=O)N[C@@H](CC(C)C)C(=O)NCC(=O)N[C@@H](CC(N)=O)C(=O)N[C@@H](Cc1ccc(O)cc1)C(=O)N[C@@H](CCCCN)C(=O)N[C@@H](CCCCN)C(=O)N[C@@H](C)C(N)=O) [Peptide 12],,,90.1%
Palm-Lys-Phe-Asn-Leu-Pro-Leu-Gly-Asn-Tyr-Lys-Lys-Pro-NH2 (Palmitoyl-KFNLPLGNYKKP-NH2; SMILES CCCCCCCCCCCCCCCC(=O)N[C@@H](CCCCN)C(=O)N[C@@H](Cc1ccccc1)C(=O)N[C@@H](CC(N)=O)C(=O)N[C@@H](CC(C)C)C(=O)N1CCC[C@H]1C(=O)N[C@@H](CC(C)C)C(=O)NCC(=O)N[C@@H](CC(N)=O)C(=O)N[C@@H](Cc1ccc(O)cc1)C(=O)N[C@@H](CCCCN)C(=O)N[C@@H](CCCCN)C(=O)N1CCC[C@H]1C(N)=O) [Peptide 1],,,95.4%
